The values that follow come from patent US12385058B2, “Herbicide tolerance protein, encoding gene thereof and use thereof” (Beijing Dabeinong Biotechnology Co., Ltd., priority 2018, dated 2025).

Positions count from the first letter of the chain named.

B1: ALT03M1: herbicide tolerant protein, SEQ ID NO: 39; ALT03 with glycine to alanine at position 140 (protein)
chain: METDNVELAQSKRKVVLAEQGSFYIGGRTVTGPGKFDPSKPVIPYSNEGATFYINQMYVNFQAPVRPRGLPLVFWHGGGLTGHIWESTPDGRPGFQTLFVQDRHTVYTIDQPGRGRGNIPTFNGPFGQLEEESIVNTVTANSSKEGAWVRDRLGPAPGQFFENSQFPRGYEDNYFKEMGFSPSISSDEIVDAVVKLVTHIGPCVLVTHSASGVLGMRVATHAKNVRGIVAYEPATSIFPKGKVPEIPPLADKKSQIFPPFEIQESYFKKLAKIPIQFVFGDNIPKNPKSAYWFLDWWRVTRYAHSLSLEAINKLGGQASLLDLPTAGLRGNTHFPFTDRNNVQVASLLSDFLGKHGLDQNES
modifications: the amino acid sequence of the ALT03M1
B2: ALT03M2: herbicide tolerant protein, SEQ ID NO: 43; ALT03 with serine to valine at position 142 (protein)
chain: B1 chain with A140G, S142V
modifications: the amino acid sequence of the ALT03M2
B3: ALT01M1: herbicide tolerant protein, SEQ ID NO: 7; ALT01 with glycine to alanine at position 176 (protein)
chain: METDKKTGTSRRSFVKAAGTGAIGIATLPLSTATAFAETDNVELAQSKRKVVLAEQGSFYIGGRTVTGPGKFDPSKPVIPYSNEGATFYINQMYVNFQAPVRPRGLPLVFWHGGGLTGHIWESTPDGRPGFQTLFVQDRHTVYTIDQPGRGRGNIPTFNGPFGQLEEESIVNTVTANSSKEGAWVRDRLGPAPGQFFENSQFPRGYEDNYFKEMGFSPSISSDEIVDAVVKLVTHIGPCVLVTHSASGVLGMRVATHAKNVRGIVAYEPATSIFPKGKVPEIPPLADKKSQIFPPFEIQESYFKKLAKIPIQFVFGDNIPKNPKSAYWFLDWWRVTRYAHSLSLEAINKLGGQASLLDLPTAGLRGNTHFPFTDRNNVQVASLLSDFLGKHGLDQNES
modifications: the amino acid sequence of the herbicide tolerant protein ALT01M1
B4: ALT01M2: herbicide tolerant protein, SEQ ID NO: 11; ALT01 with serine to valine at position 178 (protein)
chain: B3 chain with A176G, S178V
modifications: the amino acid sequence of the herbicide tolerant protein ALT01M2
B5: ALT01M3: herbicide tolerant protein, SEQ ID NO: 15; ALT01 mutated at positions 80, 81, 176, 178 and 182 (protein)
chain: B3 chain with P80R, Y81A, S178V, G182R
modifications: the amino acid sequence of the herbicide tolerant protein ALT01M3
B6: ALT02M1: herbicide tolerant protein, SEQ ID NO: 23; ALT02 with glycine to alanine at position 140 (protein)
chain: METDNVELAQSKRKVVLAEQGSFYIGGRTVTGPGKFDPSKPVIPYSNEGATFYINQMYVNFQAPVRPRGLPLVFWHGGGLTGHIWESTPDGRPGFQTLFVQDRHTVYTIDQPGRGRGNIPTFNGPFGQLEEESIVNTVTANSSKEGAWVRDRLGPAPGQFFENSQFPRGYEDNYFKEMGFSPSISSDEIVDAVVKLVTHIGPCVLVTHSASGVLGMRVATHAKNVRGIVAYEPATSIFPKGKVPEIPPLADKKSQIFPPFEIQESYFKKLAKIPIQFVFGDNIPKNPKSAYWFLDWWRVTRYAHSLSLEAINKLGGQASLLDLPTAGLRGNTHFPFTDRNNVQVASLLSDFLGKHGLDQNESKLAAALE
modifications: the amino acid sequence of ALT02M1
B7: ALT02M3: herbicide tolerant protein, SEQ ID NO: 31; ALT02 mutated at positions 44, 45, 140, 142 and 146 (protein)
chain: B6 chain with P44R, Y45A, S142V, G146R
modifications: the amino acid sequence of the ALT02M3
B8: ALT02M2: herbicide tolerant protein, SEQ ID NO: 27; ALT02 with serine to valine at position 142 (protein)
chain: B6 chain with A140G, S142V
modifications: the amino acid sequence of the ALT02M2

Test in one series: not given
The format is biochemical.
Conditions: not given
How it is done: (§1) Each reaction was timed beginning with the addition of reactive enzyme, and was terminated with 1 mL of dichloromethane. The organic phase after delamination was dehydrated with anhydrous sodium sulfate.
(§2) The above dehydrated reaction solution was blown dry with nitrogen and filtered by adding 1 mL of methanol, and 20 μL of the filtrate was subjected to liquid chromatography-mass spectrometry (LC-MS). High performance liquid chromatography (HPLC) conditions were as follows: mobile phase being methanol:water (80:20, V/V), Zorbax XDB-C18 chromatographic column (3.5 μm, 2.1×50 mm, Agilent, USA), column temperature being room temperature, UV detector, with a detection wavelength of 255 nm, a sample injection volume of 20 μL, and a flow rate of 0.25 mL/min. The primary ion mass spectrometry conditions were as follows: ion detection mode being multi-reactive ion detection; ion polarity being negative ion; ionization mode being electrospray ionization; a capillary voltage of 4000 volts; a dry gas temperature of 330° C., a flow rate of 10 L/min, an atomizing gas pressure of 35 psi, a collision voltage of 135 volts; and a mass scan range of 300-500 m/z. The secondary ion mass spectrometry conditions were as follows: a collision voltage of 90 volts; a mass scanning range of 30-400 m/z, and other conditions being the same as those of the primary ion mass spectrometry. It was identified by LC-MS that the metabolite of thifensulfuron-methyl was thiophene sulfonic acid, and the metabolite of metsulfuron-methyl, chlorimuron-ethyl, bensulfuron-methyl, sulfometuron-methyl or tribenuron-methyl was its corresponding sulfonic acid. The amount of the generated thiophene sulfonic acid (metabolite) was detected using high performance liquid chromatography (HPLC).
For B1, the “efficiency of degrading bensulfuron-methyl, fold of ALT03” value is 2.1 fold and the “efficiency of degrading thifensulfuron-methyl, fold of ALT03” value amounted to 3.0 fold.

Consider B2, for which the “efficiency of degrading bensulfuron-methyl, fold of ALT03” value was determined as 1.3 fold and the “efficiency of degrading thifensulfuron-methyl, fold of ALT03” value was found to be 3.5 fold.

As for B3, the “efficiency of degrading bensulfuron-methyl, fold of ALT01” value turned out to be 2.3 fold and the “efficiency of degrading thifensulfuron-methyl, fold of ALT01” value was found to be 3.3 fold.

In the case of B4, the “efficiency of degrading bensulfuron-methyl, fold of ALT01” value was found to be 1.4 fold and the “efficiency of degrading thifensulfuron-methyl, fold of ALT01” value is 3.9 fold.

In the case of B5, the “efficiency of degrading chlorimuron-ethyl, fold of ALT01” value came to 14.2 fold and the “efficiency of degrading metsulfuron-methyl, fold of ALT01” value was 2.1 fold.

Consider B6, for which the “efficiency of degrading bensulfuron-methyl, fold of ALT02” value worked out at 2.3 fold and the “efficiency of degrading thifensulfuron-methyl, fold of ALT02” value is listed as 3.3 fold.

On to B7, for which the “efficiency of degrading chlorimuron-ethyl, fold of ALT02” value is recorded as 14.2 fold and the “efficiency of degrading metsulfuron-methyl, fold of ALT02” value was 2.1 fold.

Turning to B8, the “efficiency of degrading bensulfuron-methyl, fold of ALT02” value is reported as 1.4 fold and the “efficiency of degrading thifensulfuron-methyl, fold of ALT02” value is reported as 3.9 fold.

Still in this series, the particulars now being: 0.2 μg enzyme, 0.2 mM substrate, pH 7.0, 30° C., 20 min.
B1: the “specific enzyme activity, bensulfuron-methyl” value was 3.7 µmol/min/mg; the “specific enzyme activity, chlorimuron-ethyl” value turned out to be 9.9 µmol/min/mg; the “specific enzyme activity, metsulfuron-methyl” value is 2.1 µmol/min/mg; the “specific enzyme activity, thifensulfuron-methyl” value is 85.4 µmol/min/mg. In addition, the “specific enzyme activity, tribenuron-methyl” value is 2.9 µmol/min/mg.

Take B2: the “specific enzyme activity, bensulfuron-methyl” value worked out at 2.3 µmol/min/mg; the “specific enzyme activity, chlorimuron-ethyl” value stood at 8.6 µmol/min/mg; the “specific enzyme activity, metsulfuron-methyl” value is 1.1 µmol/min/mg; the “specific enzyme activity, thifensulfuron-methyl” value is 100.7 µmol/min/mg. Also, the “specific enzyme activity, tribenuron-methyl” value stood at 10.3 µmol/min/mg.

B3: the “specific enzyme activity, bensulfuron-methyl” value was 3.9 µmol/min/mg; the “specific enzyme activity, chlorimuron-ethyl” value came to 10.4 µmol/min/mg; the “specific enzyme activity, metsulfuron-methyl” value stood at 2.2 µmol/min/mg; the “specific enzyme activity, thifensulfuron-methyl” value stood at 89.9 µmol/min/mg. Besides, the “specific enzyme activity, tribenuron-methyl” value was found to be 3.1 µmol/min/mg.

Regarding B4, the “specific enzyme activity, bensulfuron-methyl” value came to 2.4 µmol/min/mg; the “specific enzyme activity, chlorimuron-ethyl” value is 9.0 µmol/min/mg; the “specific enzyme activity, metsulfuron-methyl” value worked out at 1.2 µmol/min/mg; the “specific enzyme activity, thifensulfuron-methyl” value was determined as 106.0 µmol/min/mg. The “specific enzyme activity, tribenuron-methyl” value was 10.8 µmol/min/mg.

Regarding B5, the “specific enzyme activity, bensulfuron-methyl” value worked out at 0.68 µmol/min/mg; the “specific enzyme activity, chlorimuron-ethyl” value was 38.4 µmol/min/mg; the “specific enzyme activity, metsulfuron-methyl” value is 4.2 µmol/min/mg; the “specific enzyme activity, thifensulfuron-methyl” value came out at 17.8 µmol/min/mg. Also, the “specific enzyme activity, tribenuron-methyl” value was 3.3 µmol/min/mg.

As to B6, the “specific enzyme activity, bensulfuron-methyl” value was 4.1 µmol/min/mg; the “specific enzyme activity, chlorimuron-ethyl” value stood at 10.9 µmol/min/mg; the “specific enzyme activity, metsulfuron-methyl” value turned out to be 2.3 µmol/min/mg; the “specific enzyme activity, thifensulfuron-methyl” value was found to be 94.4 µmol/min/mg. In addition, the “specific enzyme activity, tribenuron-methyl” value was found to be 3.3 µmol/min/mg.

B7: the “specific enzyme activity, bensulfuron-methyl” value came to 0.7 µmol/min/mg; the “specific enzyme activity, chlorimuron-ethyl” value came out at 40.3 µmol/min/mg; the “specific enzyme activity, metsulfuron-methyl” value was 4.4 µmol/min/mg; the “specific enzyme activity, thifensulfuron-methyl” value is 18.7 µmol/min/mg. Moreover, the “specific enzyme activity, tribenuron-methyl” value is 3.5 µmol/min/mg.

With B8, the “specific enzyme activity, bensulfuron-methyl” value is 2.5 µmol/min/mg; the “specific enzyme activity, chlorimuron-ethyl” value stood at 9.5 µmol/min/mg; the “specific enzyme activity, metsulfuron-methyl” value was 1.3 µmol/min/mg; the “specific enzyme activity, thifensulfuron-methyl” value was 111.3 µmol/min/mg. Moreover, the “specific enzyme activity, tribenuron-methyl” value amounted to 11.3 µmol/min/mg.

A further series is described as follows: Degradation of sulfometuron-methyl by purified herbicide tolerant proteins (enzymatic activity, HPLC). The class given is biochemical. Conditions: 0.2 μg enzyme, 0.2 mM substrate, pH 7.0, 30° C., 20 min. How it is done:
as §1, §2
B1: the “specific enzyme activity, sulfometuron-methyl” value was 5.1 µmol/min/mg.

Turning to B2, the “specific enzyme activity, sulfometuron-methyl” value was found to be 3.3 µmol/min/mg.

For the molecule B3, the “specific enzyme activity, sulfometuron-methyl” value is 5.4 µmol/min/mg.

As to B4, the “specific enzyme activity, sulfometuron-methyl” value came out at 3.5 µmol/min/mg.

As for B5, the “specific enzyme activity, sulfometuron-methyl” value amounted to 1.1 µmol/min/mg.

Turning to B6, the “specific enzyme activity, sulfometuron-methyl” value amounted to 5.7 µmol/min/mg.

Turning to B7, the “specific enzyme activity, sulfometuron-methyl” value worked out at 1.2 µmol/min/mg.

For B8, the “specific enzyme activity, sulfometuron-methyl” value is 3.7 µmol/min/mg.
